The record followed here is patent publication US20090092614A1 (Biogen, published 2009).

The target of assay [1] is T1, human IGF-1R(1-903)-Fc (human, UniProt P08069 31-933).
T1 construct: Made by Biogen Idec; also called hIGF-1R-Fc; IGF-1R-Fc
The assay can be described thus: blocking ELISA, competitor 320 nM IGF-1.

In assay [2] the target is T2, hIGF-1R-Fc mutant SD207 (human, UniProt P08069 31-933).
T2 construct: build as m36 with the substitution; also called G265Y
Briefly: KD grade of mutant hIGF-1R-Fc; S = binding to antibody was ablated by mutation.

The target of assay [3] is T3, hIGF-1R-Fc mutant SD203 (human, UniProt P08069 31-933).
T3 construct: build as m36 with the substitution; also called N254A
The assay is described as above.

Assay [4] has as its target T1, human IGF-1R(1-903)-Fc. Briefly: blocking ELISA, competitor 640 nM IGF-2.

T1 sequence (P08069 31-933): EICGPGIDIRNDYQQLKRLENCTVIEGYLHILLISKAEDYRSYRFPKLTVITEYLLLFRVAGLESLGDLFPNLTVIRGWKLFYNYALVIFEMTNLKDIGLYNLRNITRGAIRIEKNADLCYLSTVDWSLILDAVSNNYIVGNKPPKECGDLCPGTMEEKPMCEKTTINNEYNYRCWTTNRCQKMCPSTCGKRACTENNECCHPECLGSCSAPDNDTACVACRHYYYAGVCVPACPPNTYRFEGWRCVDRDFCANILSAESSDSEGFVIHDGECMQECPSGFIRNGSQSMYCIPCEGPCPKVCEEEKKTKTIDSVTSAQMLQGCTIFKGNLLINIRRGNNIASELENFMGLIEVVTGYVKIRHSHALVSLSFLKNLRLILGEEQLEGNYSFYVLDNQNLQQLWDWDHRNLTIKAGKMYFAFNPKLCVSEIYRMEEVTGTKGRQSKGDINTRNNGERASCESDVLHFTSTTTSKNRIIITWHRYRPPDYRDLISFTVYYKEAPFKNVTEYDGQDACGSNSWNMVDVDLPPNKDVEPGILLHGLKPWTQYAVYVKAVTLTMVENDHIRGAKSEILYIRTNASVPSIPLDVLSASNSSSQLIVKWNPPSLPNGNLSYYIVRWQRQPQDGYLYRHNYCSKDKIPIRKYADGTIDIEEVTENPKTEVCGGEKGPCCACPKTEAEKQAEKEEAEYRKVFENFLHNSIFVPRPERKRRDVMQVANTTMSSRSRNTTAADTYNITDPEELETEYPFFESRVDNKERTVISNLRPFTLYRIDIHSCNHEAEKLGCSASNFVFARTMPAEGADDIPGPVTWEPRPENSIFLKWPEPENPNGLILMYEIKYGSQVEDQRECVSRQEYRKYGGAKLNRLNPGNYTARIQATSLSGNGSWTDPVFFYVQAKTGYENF
T2 sequence (P08069 other isoform, or with tags, fused parts or gaps mutant limits assumed): as the sequence (P08069 31-933) above, with G265Y counted along it
T3 sequence (P08069 other isoform, or with tags, fused parts or gaps mutant limits assumed): as the sequence (P08069 31-933) above, with N254A counted along it

B1: P1E2 (chimeric antibody) (antibody, V domains shown)
VH: QVQLQQPGAELVKPGASVKLSCKASGYTFTSYWMHWVKQRPGQGLEWIGEINPTYGRSNYNEKFKSKATLTVDKSSSTAYMQLSSLTSEDSAVYYCARLVRLRYFDVWGAGTTVTVSS
VL: DIVMTQAAFSNPVTLGTSASISCRSSKSLLHSNGITYLYWYLQKPGQSPQLLIYQMSNLASGVPDRFSSSGSGTDFTLRISRVEAEDVGVYYCAQNLELPYTFGGGTKLEIK
Consider B1, for which the “% IGF-1 inhibition upon antibody saturation” value in assay [1] turned out to be 38%. Further, the binding result in assay [2] and in assay [3] was “no binding” each time. Besides, in assay [4], the “% IGF-2 inhibition upon antibody saturation” value is around 50%.
